Substitutions are numbered along the chain they refer to. In names and notes the source's numbering stands.
B1: pAM115 (B3 domain of Protein L; pos 10 N, pos 45 A, pos 60 N) (designed binder)
chain: PKEEVTIKANLIYADGKTQTAEFKGTFEEATAEAYRYADLLAKEAGKYTVDVADKGYTLNIKFAGKEKTPEE
B2: pAM116 (B3 domain of Protein L; pos 10 N, pos 45 H, pos 60 N) (designed binder)
chain: B1 chain with A45H
B3: pAM123 (B3 domain of Protein L; pos 10 Q, pos 45 N, pos 60 N) (designed binder)
chain: B1 chain with N10Q, A45N
B4: pAM124 (B3 domain of Protein L; pos 10 Q, pos 45 A, pos 60 N) (designed binder)
chain: B1 chain with N10Q
B5: pAM126 (B3 domain of Protein L; pos 10 Q, pos 45 N, pos 60 Q) (designed binder)
chain: B1 chain with N10Q, A45N, N60Q
B6: pAM134 (B3 domain of Protein L; pos 10 Y, pos 45 H, pos 60 N) (designed binder)
chain: B1 chain with N10Y, A45H
B7: pAM130 (B3 domain of Protein L; pos 10 Q, pos 45 H, pos 60 Q) (designed binder)
chain: B1 chain with N10Q, A45H, N60Q
B8: pAM119 (B3 domain of Protein L; pos 10 N, pos 45 A, pos 60 Q) (designed binder)
chain: B1 chain with N60Q
B9: pAM117 (B3 domain of Protein L; pos 10 N, pos 45 N, pos 60 Q) (designed binder)
chain: B1 chain with A45N, N60Q
B10: pAM128 (previously disclosed benchmarking Protein L ligand; B3 domain with pos 10 Q, pos 45 A, pos 60 Q) (designed binder)
chain: B1 chain with N10Q, N60Q
B11: pAM135 (B3 domain of Protein L; pos 10 Y, pos 45 N, pos 60 Q) (designed binder)
chain: B1 chain with N10Y, A45N, N60Q
B12: pAM133 (B3 domain of Protein L; pos 10 Y, pos 45 A, pos 60 N) (designed binder)
chain: B1 chain with N10Y
B13: pAM127 (B3 domain of Protein L; pos 10 Q, pos 45 N, pos 60 Y) (designed binder)
chain: B1 chain with N10Q, A45N, N60Y
B14: pAM129 (B3 domain of Protein L; pos 10 Q, pos 45 A, pos 60 Y) (designed binder)
chain: B1 chain with N10Q, N60Y
B15: pAM137 (B3 domain of Protein L; pos 10 Y, pos 45 A, pos 60 Q) (designed binder)
chain: B1 chain with N10Y, N60Q
B16: pAM118 (B3 domain of Protein L; pos 10 N, pos 45 N, pos 60 Y) (designed binder)
chain: B1 chain with A45N, N60Y
B17: pAM120 (B3 domain of Protein L; pos 10 N, pos 45 A, pos 60 Y) (designed binder)
chain: B1 chain with N60Y
B18: pAM139 (B3 domain of Protein L; pos 10 Y, pos 45 H, pos 60 Q) (designed binder)
chain: B1 chain with N10Y, A45H, N60Q
B19: pAM138 (B3 domain of Protein L; pos 10 Y, pos 45 A, pos 60 Y) (designed binder)
chain: B1 chain with N10Y, N60Y
B20: pAM121 (B3 domain of Protein L; pos 10 N, pos 45 H, pos 60 Q) (designed binder)
chain: B1 chain with A45H, N60Q
B21: pAM136 (B3 domain of Protein L; pos 10 Y, pos 45 N, pos 60 Y) (designed binder)
chain: B1 chain with N10Y, A45N, N60Y
B22: pAM131 (B3 domain of Protein L; pos 10 Q, pos 45 H, pos 60 Y) (designed binder)
chain: B1 chain with N10Q, A45H, N60Y
B23: pAM141 (B1 domain of Protein L; pos 10 N, pos 45 N, pos 60 N) (protein)
chain: SEEEVTIKANLIFANGSTQTAEFKGTFEKATSEAYAYADTLKKDNGEYTVDVADKGYTLNIKFAGKEKTPEE
B24: pAM154 (B1 domain of Protein L; pos 10 Q, pos 45 A, pos 60 Q) (designed binder)
chain: B23 chain with N10Q, N45A, N60Q
B25: pAM167 (B1 domain of Protein L; pos 10 Y, pos 45 H, pos 60 Y) (designed binder)
chain: B23 chain with N10Y, N45H, N60Y
B26: pAM143 (B2 domain of Protein L; pos 10 N, pos 45 N, pos 60 N) (protein)
chain: B1 chain with T31A, L40A, A42K, E44D, A45N, K47E
B27: pAM169 (B2 domain of Protein L; pos 10 Y, pos 45 H, pos 60 Y) (designed binder)
chain: B1 chain with N10Y, T31A, L40A, A42K, E44D, A45H, K47E, N60Y
B28: pAM156 (B2 domain of Protein L; pos 10 Q, pos 45 A, pos 60 Q) (designed binder)
chain: B1 chain with N10Q, T31A, L40A, A42K, E44D, K47E, N60Q
B29: pAM144 (B4 domain of Protein L; pos 10 N, pos 45 N, pos 60 N) (protein)
chain: PKEEVTIKANLIYADGKTQTAEFKGTFAEATAEAYRYADLLAKENGKYTADLEDGGYTINIRFAGKKVDEKPEE
B30: pAM157 (B4 domain of Protein L; pos 10 Q, pos 45 A, pos 60 Q) (designed binder)
chain: B29 chain with N10Q, N45A, N60Q
B31: pAM170 (B4 domain of Protein L; pos 10 Y, pos 45 H, pos 60 Y) (designed binder)
chain: B29 chain with N10Y, N45H, N60Y
B32: pAM145 (B5 domain of Protein L with H45N backbone; pos 10 N, pos 45 N, pos 60 N) (designed binder)
chain: KEQVTIKENIYFEDGTVQTATFKGTFAEATAEAYRYADLLSKENGKYTADLEDGGYTINIRFAGKEEPEE
B33: pAM180 (B5 domain of Protein L; pos 10 N, pos 45 H, pos 60 N) (protein)
chain: B32 chain with N44H
B34: pAM158 (B5 domain of Protein L; pos 10 Q, pos 45 A, pos 60 Q) (designed binder)
chain: B32 chain with N9Q, N44A, N59Q
B35: pAM171 (B5 domain of Protein L; pos 10 Y, pos 45 H, pos 60 Y) (designed binder)
chain: B32 chain with N9Y, N44H, N59Y
B36: pAM146 (C1 domain of Protein L; pos 10 N, pos 45 N, pos 60 N) (protein)
chain: PEEEVTIKANLIFADGSTQNAEFKGTFAKAVSDAYAYADALKKDNGEYTVDVADKGLTLNIKFAGKKEKPEE
B37: pAM159 (C1 domain of Protein L; pos 10 Q, pos 45 A, pos 60 Q) (designed binder)
chain: B36 chain with N10Q, N45A, N60Q
B38: pAM172 (C1 domain of Protein L; pos 10 Y, pos 45 H, pos 60 Y) (designed binder)
chain: B36 chain with N10Y, N45H, N60Y
B39: pAM148 (C2 domain of Protein L; pos 10 N, pos 45 N, pos 60 N) (protein)
chain: PKEEVTIKVNLIFADGKTQTAEFKGTFEEATAKAYAYADLLAKENGEYTADLEDGGNTINIKFAGKETPETPEE
B40: pAM162 (C2 domain of Protein L; pos 10 Q, pos 45 A, pos 57 Y, pos 60 Q) (designed binder)
chain: B39 chain with N10Q, N45A, N57Y, N60Q
B41: pAM149 (C2 domain of Protein L; pos 10 N, pos 45 N, pos 57 Y, pos 60 N) (designed binder)
chain: B39 chain with N57Y
B42: pAM175 (C2 domain of Protein L; pos 10 Y, pos 45 H, pos 57 Y, pos 60 Y) (designed binder)
chain: B39 chain with N10Y, N45H, N57Y, N60Y
B43: pAM174 (C2 domain of Protein L; pos 10 Y, pos 45 H, pos 60 Y) (designed binder)
chain: B39 chain with N10Y, N45H, N60Y
B44: pAM161 (C2 domain of Protein L; pos 10 Q, pos 45 A, pos 60 Q) (designed binder)
chain: B39 chain with N10Q, N45A, N60Q
B45: pAM151 (C3 domain of Protein L; pos 10 N, pos 39 D, pos 45 N, pos 57 Y, pos 60 N) (designed binder)
chain: B39 chain with T18I, N57Y
B46: pAM164 (C3 domain of Protein L; pos 10 Q, pos 39 D, pos 45 A, pos 57 Y, pos 60 Q) (designed binder)
chain: B39 chain with N10Q, T18I, N45A, N57Y, N60Q
B47: pAM150 (C3 domain of Protein L; pos 10 N, pos 45 N, pos 60 N) (protein)
chain: B39 chain with T18I, D39N
B48: pAM177 (C3 domain of Protein L; pos 10 Y, pos 39 D, pos 45 H, pos 57 Y, pos 60 Y) (designed binder)
chain: B39 chain with N10Y, T18I, N45H, N57Y, N60Y
B49: pAM176 (C3 domain of Protein L; pos 10 Y, pos 45 H, pos 60 Y) (designed binder)
chain: B39 chain with N10Y, T18I, D39N, N45H, N60Y
B50: pAM163 (C3 domain of Protein L; pos 10 Q, pos 45 A, pos 60 Q) (designed binder)
chain: B39 chain with N10Q, T18I, D39N, N45A, N60Q
B51: pAM152 (C4 domain of Protein L; pos 10 N, pos 45 N, pos 60 N) (protein)
chain: PKEEVTIKVNLIFADGKTQTAEFKGTFEEATAEAYRYADLLAKVNGEYTADLEDGGYTINIKFAGKEQPGENPG
B52: pAM165 (C4 domain of Protein L; pos 10 Q, pos 45 A, pos 60 Q) (designed binder)
chain: B51 chain with N10Q, N45A, N60Q
B53: pAM178 (C4 domain of Protein L; pos 10 Y, pos 45 H, pos 60 Y) (designed binder)
chain: B51 chain with N10Y, N45H, N60Y
B54: pAM153 (D1 domain; pos 10 N, pos 45 N, pos 60 N) (protein)
chain: PKEEVTIKANLIFADGKTQTAEFKGTFEEATAEAYRYADLLAKVNGEYTADLEDGGYTINIKFAGKEQPGEN
B55: pAM166 (D1 domain; pos 10 Q, pos 45 A, pos 60 Q) (designed binder)
chain: B54 chain with N10Q, N45A, N60Q
B56: pAM179 (D1 domain; pos 10 Y, pos 45 H, pos 60 Y) (designed binder)
chain: B54 chain with N10Y, N45H, N60Y

What follows are binders tested against polyclonal IgG (Gammanorm, Octapharma, Sweden) (assay: SPR (Biacore 8K+), variant amine-coupled to CM5, Gammanorm as analyte, steady state fit).

B1 and B2 are the same in Kd: 51 nM for the first, 51 nM for the second.

B3 and B4 are the same in Kd: 51 nM for the first, 51 nM for the second.

B5 and B6 are within 1.5-fold of each other in Kd: 52 nM for the first, 55 nM for the second.

B7 and B8 are within 1.5-fold of each other in Kd: 57 nM for the first, 58 nM for the second.

B9 and B10 are the same in Kd: 60 nM for the first, 60 nM for the second.

B11 and B12 are within 1.5-fold of each other in Kd: 61 nM for the first, 46 nM for the second.

B13 and B14 are within 1.5-fold of each other in Kd: 62 nM for the first, 63 nM for the second.

B15 and B16 are within 1.5-fold of each other in Kd: 64 nM for the first, 68 nM for the second.

B17 and B18 are within 1.5-fold of each other in Kd: 69 nM for the first, 71 nM for the second.

B19 and B20 are within 1.5-fold of each other in Kd: 73 nM for the first, 76 nM for the second.

B21 and B22 are within 1.5-fold of each other in Kd: 77 nM for the first, 81 nM for the second.

B23 and B24 are within 1.5-fold of each other in Kd: 48 nM for the first, 65 nM for the second.

Compared with B25, B26 is 2.7-fold lower in Kd: 97 nM for the first, 36 nM for the second.

B27 and B28 are within 1.5-fold of each other in Kd: 76 nM for the first, 92 nM for the second.

B29 and B30 are the same in Kd: 38 nM for the first, 38 nM for the second.

Compared with B31, B32 is 4.5-fold lower in Kd: 49 nM for the first, 11 nM for the second.

B33 and B34 are within 1.5-fold of each other in Kd: 21 nM for the first, 24 nM for the second.

Going from B35 to B36, the Kd rises from 40 nM to 61 nM (1.5-fold).

B37 and B38 are within 1.5-fold of each other in Kd: 103 nM for the first, 110 nM for the second.

B39 and B40 are within 1.5-fold of each other in Kd: 35 nM for the first, 39 nM for the second.

B41 and B42 are within 1.5-fold of each other in Kd: 45 nM for the first, 57 nM for the second.

B43 and B44 are within 1.5-fold of each other in Kd: 105 nM for the first, 110 nM for the second.

B45 and B46 are within 1.5-fold of each other in Kd: 30 nM for the first, 39 nM for the second.

B47 and B48 are within 1.5-fold of each other in Kd: 40 nM for the first, 58 nM for the second.

B49 and B50 are within 1.5-fold of each other in Kd: 137 nM for the first, 188 nM for the second.

First: B51
Second: B52
The Kd of the first is 1.6-fold lower: 24 nM for the first, 38 nM for the second.

B53 and B54 are within 1.5-fold of each other in Kd: 45 nM for the first, 32 nM for the second.

First: B55
Second: B56
The Kd of the first is 1.8-fold lower: 41 nM for the first, 75 nM for the second.

What follows are binders tested against polyclonal IgG (Gammanorm, Octapharma, Sweden) (assay: SPR (Biacore 8K+), variant amine-coupled to CM5, Gammanorm as analyte, 1:1 kinetic fit).

B1 and B2 are within 1.5-fold of each other in Kd: 12 nM for the first, 14 nM for the second.

B3 and B4 are within 1.5-fold of each other in Kd: 13 nM for the first, 12 nM for the second.

B5 and B6 are within 1.5-fold of each other in Kd: 16 nM for the first, 18 nM for the second.

B7 and B8 are within 1.5-fold of each other in Kd: 19 nM for the first, 16 nM for the second.

B9 and B10 are within 1.5-fold of each other in Kd: 18 nM for the first, 17 nM for the second.

B11 and B12 are within 1.5-fold of each other in Kd: 17 nM for the first, 13 nM for the second.

B13 and B14 are within 1.5-fold of each other in Kd: 15 nM for the first, 14 nM for the second.

B15 and B16 are within 1.5-fold of each other in Kd: 18 nM for the first, 20 nM for the second.

B17 and B18 are within 1.5-fold of each other in Kd: 19 nM for the first, 22 nM for the second.

B19 and B20 are within 1.5-fold of each other in Kd: 18 nM for the first, 22 nM for the second.

B21 and B22 are within 1.5-fold of each other in Kd: 19 nM for the first, 21 nM for the second.
